Assay in all cases: time-resolved fluorescence immunoassay (TR-FIA); plate coated with monoclonal anti-PBX1; PBX1 pre-incubated with PREP1 or MEIS1 for 1 h on ice, 10 µg/mL in 1% BSA PBS, 1 h at room temperature on the plate; detected with anti-PREP1 or biotinylated anti-MEIS1/2 and Eu^3+ conjugates; normalised to the wild-type protein taken as 1
Common to all, as to conditions: both partners purified

The target in experiment [1] is T1, PBX1 I211A (human, UniProt P40424 1-430, I211A).
T1 construct: PBX1, residues 1-430; source: E. coli, purified
T1 sequence (looked up): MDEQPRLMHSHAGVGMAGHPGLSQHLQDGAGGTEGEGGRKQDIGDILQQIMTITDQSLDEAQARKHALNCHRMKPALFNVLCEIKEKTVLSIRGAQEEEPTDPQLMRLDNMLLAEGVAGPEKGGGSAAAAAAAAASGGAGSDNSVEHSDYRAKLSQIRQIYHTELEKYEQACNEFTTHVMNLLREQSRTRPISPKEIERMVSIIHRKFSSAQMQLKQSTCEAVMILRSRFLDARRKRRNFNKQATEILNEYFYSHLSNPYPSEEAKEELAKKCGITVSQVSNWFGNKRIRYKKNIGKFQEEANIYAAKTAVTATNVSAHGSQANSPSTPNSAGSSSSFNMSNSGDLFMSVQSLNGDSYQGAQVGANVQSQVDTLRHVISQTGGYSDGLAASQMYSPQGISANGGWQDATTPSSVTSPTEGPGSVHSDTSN

Experiment [2] deals with T2, PREP1 L63A (UniProt P55347 1-436, L63A).
T2 construct: PREP1 (PKNOX1), residues 1-436
T2 sequence (looked up): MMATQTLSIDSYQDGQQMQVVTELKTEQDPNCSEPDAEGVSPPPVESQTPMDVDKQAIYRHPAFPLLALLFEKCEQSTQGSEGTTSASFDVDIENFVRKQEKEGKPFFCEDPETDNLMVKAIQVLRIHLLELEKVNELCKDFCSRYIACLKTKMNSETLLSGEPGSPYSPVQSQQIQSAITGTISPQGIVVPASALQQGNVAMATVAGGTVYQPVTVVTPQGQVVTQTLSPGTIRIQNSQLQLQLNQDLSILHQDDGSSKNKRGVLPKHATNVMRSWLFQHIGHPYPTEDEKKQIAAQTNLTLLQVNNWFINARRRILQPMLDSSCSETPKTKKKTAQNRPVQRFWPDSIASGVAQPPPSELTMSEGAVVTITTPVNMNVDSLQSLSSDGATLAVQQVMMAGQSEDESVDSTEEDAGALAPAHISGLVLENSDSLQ

The target in experiment [3] is T3, PREP1 L129A (UniProt P55347 1-436, L129A).
T3 construct: PREP1 (PKNOX1), residues 1-436
T3 sequence (looked up): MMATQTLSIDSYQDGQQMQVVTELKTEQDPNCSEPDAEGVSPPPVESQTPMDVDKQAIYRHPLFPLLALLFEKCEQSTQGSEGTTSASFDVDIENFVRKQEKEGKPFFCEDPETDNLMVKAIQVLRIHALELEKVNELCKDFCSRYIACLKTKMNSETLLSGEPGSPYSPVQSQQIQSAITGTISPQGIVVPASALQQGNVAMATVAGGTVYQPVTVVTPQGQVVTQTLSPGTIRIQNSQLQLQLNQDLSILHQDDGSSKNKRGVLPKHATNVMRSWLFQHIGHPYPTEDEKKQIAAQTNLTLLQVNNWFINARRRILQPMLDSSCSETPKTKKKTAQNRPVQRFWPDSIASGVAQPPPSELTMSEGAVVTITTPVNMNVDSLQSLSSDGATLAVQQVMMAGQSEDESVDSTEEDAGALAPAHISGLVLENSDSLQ

For experiment [4], the target named is T4, PREP1 L66A (UniProt P55347 1-436, L66A).
T4 construct: PREP1 (PKNOX1), residues 1-436
T4 sequence (looked up): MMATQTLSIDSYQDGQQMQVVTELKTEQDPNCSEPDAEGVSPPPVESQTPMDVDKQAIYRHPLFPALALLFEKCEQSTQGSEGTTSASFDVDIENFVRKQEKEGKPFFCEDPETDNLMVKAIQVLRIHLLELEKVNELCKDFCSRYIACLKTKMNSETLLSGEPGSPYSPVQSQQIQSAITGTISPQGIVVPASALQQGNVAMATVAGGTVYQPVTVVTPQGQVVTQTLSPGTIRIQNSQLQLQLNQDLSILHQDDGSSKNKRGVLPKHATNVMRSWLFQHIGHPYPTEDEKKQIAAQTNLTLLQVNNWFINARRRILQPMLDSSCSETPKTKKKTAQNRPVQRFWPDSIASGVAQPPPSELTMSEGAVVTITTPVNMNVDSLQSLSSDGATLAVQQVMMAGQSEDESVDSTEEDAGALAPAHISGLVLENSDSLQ

B1: PREP1_(1-436), wild-type recombinant (TR-FIA) (natural protein, UniProt P55347 1-436, looked up)
chain: MMATQTLSIDSYQDGQQMQVVTELKTEQDPNCSEPDAEGVSPPPVESQTPMDVDKQAIYRHPLFPLLALLFEKCEQSTQGSEGTTSASFDVDIENFVRKQEKEGKPFFCEDPETDNLMVKAIQVLRIHLLELEKVNELCKDFCSRYIACLKTKMNSETLLSGEPGSPYSPVQSQQIQSAITGTISPQGIVVPASALQQGNVAMATVAGGTVYQPVTVVTPQGQVVTQTLSPGTIRIQNSQLQLQLNQDLSILHQDDGSSKNKRGVLPKHATNVMRSWLFQHIGHPYPTEDEKKQIAAQTNLTLLQVNNWFINARRRILQPMLDSSCSETPKTKKKTAQNRPVQRFWPDSIASGVAQPPPSELTMSEGAVVTITTPVNMNVDSLQSLSSDGATLAVQQVMMAGQSEDESVDSTEEDAGALAPAHISGLVLENSDSLQ
notes: also called wild-type PREP1; PKNOX1; source: E. coli, purified
In the case of B1, the “binding relative to wild type” value in experiment [1] was approximately 65%.

B2: PBX1_(1-430), wild-type recombinant (natural protein, human, UniProt P40424 1-430, looked up)
chain: MDEQPRLMHSHAGVGMAGHPGLSQHLQDGAGGTEGEGGRKQDIGDILQQIMTITDQSLDEAQARKHALNCHRMKPALFNVLCEIKEKTVLSIRGAQEEEPTDPQLMRLDNMLLAEGVAGPEKGGGSAAAAAAAAASGGAGSDNSVEHSDYRAKLSQIRQIYHTELEKYEQACNEFTTHVMNLLREQSRTRPISPKEIERMVSIIHRKFSSIQMQLKQSTCEAVMILRSRFLDARRKRRNFNKQATEILNEYFYSHLSNPYPSEEAKEELAKKCGITVSQVSNWFGNKRIRYKKNIGKFQEEANIYAAKTAVTATNVSAHGSQANSPSTPNSAGSSSSFNMSNSGDLFMSVQSLNGDSYQGAQVGANVQSQVDTLRHVISQTGGYSDGLAASQMYSPQGISANGGWQDATTPSSVTSPTEGPGSVHSDTSN
notes: also called wild-type PBX1; purified recombinant human PBX1; source: E. coli, purified
For the molecule B2, the binding result in experiment [2], in experiment [3] and in experiment [4] was “binds” each time.

Values taken from article PMC7545097, “Mapping the native interaction surfaces of PREP1 with PBX1 by cross-linking mass-spectrometry and mutagenesis” (Scientific Reports, 2020).
